Data on two molecules can be found in patent US20040131612A1 (APPLIED MOLECULAR EVOLUTION, published 2004).

Several values for one entry are separate records, joined by “and”; a condition that tells them apart may be missing. Equal values may be shown once. Where only a bound is given, the exact number is not on record here.

Assay [1] addresses T1, human TNF-α (human, UniProt P01375 77-233).
T1 construct: It was biotinylated in the filter lift and on-rate ELISA; also called hTNF-α; hTNF
Briefly: calculated from Kd = koff/kon (KinExA data). The procedure:
Next, binding kinetics of three of the Fab fragments described in Table 4 were determined in a kinetic exclusion assay. Affinity measurements were performed on a KinExA™3000 instrument (Sapidyne Instruments, Inc., Boise, Id.) using Fab fragments (A10K, A9K, and A10P) released from the periplasmic space whose concentration was determined by a quantitative ELISA. Briefly, antigen and antibody fragment were allowed to react in solution and the fraction of unbound reagent was determined by capture and measured on a bead support. Binding kinetics can be determined or calculated from the amount of unbound reagent. For instance, after interaction between TNF-α and a Fab fragment has occurred in solution, binding of the unreacted, free Fab fragment to TNF-α coated beads can be measured on the instrument by detection with a labeled secondary antibody to the Fab fragment (e.g., a goat anti-IgG (heavy and light)). […] After the incubation, the amount of unbound Fab in the equilibrated samples was determined on the KinExA™3000 instrument according to the manufacturer's instructions. Kd values were determined by the instrument software.
To measure kₒₙ, individual Fab fragments at a concentration of 40 pM were mixed with 400 pM of hTNF-α. […] The resulting data was used to calculate the kₒₙ with the instrument software. koff was calculated by using the formula Kd=koff/kₒₙ.

The target in assay [2] is T1, human TNF-α. Description: kinetic exclusion assay (KinExA 3000), 40 pM Fab mixed with 400 pM hTNF-α, time course. The procedure:
To measure kₒₙ, individual Fab fragments at a concentration of 40 pM were mixed with 400 pM of hTNF-α. A series of measurements were taken over a time course. The resulting data was used to calculate the kₒₙ with the instrument software. koff was calculated by using the formula Kd=koff/kₒₙ.
In general terms: In KinExA the mixture passes briefly over coated beads that capture the unbound partner.

The target in assay [3] is T1, human TNF-α. Description: cell-based or functional assay.
Assay [4] has as its target T1, human TNF-α. Description: kinetic exclusion assay (KinExA 3000), Fab in solution with human TNF-α; upper end of the range. The procedure:
(§1) Next, binding kinetics of three of the Fab fragments described in Table 4 were determined in a kinetic exclusion assay. Affinity measurements were performed on a KinExA™3000 instrument (Sapidyne Instruments, Inc., Boise, Id.) using Fab fragments (A10K, A9K, and A10P) released from the periplasmic space whose concentration was determined by a quantitative ELISA. Briefly, antigen and antibody fragment were allowed to react in solution and the fraction of unbound reagent was determined by capture and measured on a bead support. Binding kinetics can be determined or calculated from the amount of unbound reagent. For instance, after interaction between TNF-α and a Fab fragment has occurred in solution, binding of the unreacted, free Fab fragment to TNF-α coated beads can be measured on the instrument by detection with a labeled secondary antibody to the Fab fragment (e.g., a goat anti-IgG (heavy and light)). […] A total of 13 tubes were used for each Kd determination. For A10K and A10P, the Fab concentration was 10 pM with the human TNF-α concentration beginning at 160 pM and then serially diluted to 0.078 pM with the final tube containing no human TNF-α. […] After the incubation, the amount of unbound Fab in the equilibrated samples was determined on the KinExA™3000 instrument according to the manufacturer's instructions. Kd values were determined by the instrument software.

Assay [5] has as its target T1, human TNF-α. Description: kinetic exclusion assay (KinExA 3000), Fab in solution with human TNF-α; lower end of the range. The procedure: as §1

T1 sequence (P01375 77-233 limits assumed): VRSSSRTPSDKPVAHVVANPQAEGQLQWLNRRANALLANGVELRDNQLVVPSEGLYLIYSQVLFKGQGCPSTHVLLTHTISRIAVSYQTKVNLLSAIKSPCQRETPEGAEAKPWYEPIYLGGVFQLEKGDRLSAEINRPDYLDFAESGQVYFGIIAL

B1: A10K Fab fragment (Fab, V domains shown)
VH: EVQLVESGGGLVQPGGSLRLSCAASGFKFSNHWMNWVRQAPGKGLEWVGEIRSKSMNSATHYAESVKGRFTISRDDSKNSLYLQMNSLKTEDTAVYYCARNYYGSTYDHWGQGTLVTVSS
VL: EIVLTQSPDFQSVTPKEKVTITCRASQFVGYSIHWYQQKPDQSPKLLIKYASESRSGVPSRFSGSGSGTDFTLTINSLEAEDAATYYCQQSHSWHFTFGQGTKVEIK
notes: Fab released from the E. coli periplasm; Against hu1: light chain S31Y, M55R
For orientation: koff means the first-order rate constant of dissociation. One may read the kon as the rate constant with which the complex forms. Lower therefore signals slow association. As a reminder, the Kd is the constant that tells how readily two partners part at equilibrium. A higher Kd goes with lower affinity. Regarding B1, the koff with human TNF-α [1] was 1.96e-05 s⁻¹ and 3.76e-05 s⁻¹. The kon with human TNF-α [2] was 3.92e+06 M⁻¹ s⁻¹ and 7.51e+06 M⁻¹ s⁻¹. Further, in the assay with human TNF-α [3], the “L929 cell protection assay (prevention of TNF-α-mediated cell death), EC50” value is around 0.025 nM and the “L929 cell protection assay, EC50” value is around 0.067 nM. Moreover, the Kd in the assay with human TNF-α [4] was at most 0.0072 nM. Further, in the assay with human TNF-α [5], the Kd was at least 0.0035 nM.

B2: A10K IgG (antibody, V domains shown)
VH: EVQLVESGGGLVQPGGSLRLSCAASGFKFSNHWMNWVRQAPGKGLEWVGEIRSKSMNSATHYAESVKGRFTISRDDSKNSLYLQMNSLKTEDTAVYYCARNYYGSTYDHWGQGTLVTVSS
VL: EIVLTQSPDFQSVTPKEKVTITCRASQFVGYSIHWYQQKPDQSPKLLIKYASESRSGVPSRFSGSGSGTDFTLTINSLEAEDAATYYCQQSHSWHFTFGQGTKVEIK
Turning to B2, the “L929 cell protection assay, EC50” value in the assay with human TNF-α [3] is around 0.0027 nM.
